Consider seven molecules from patent US20190263882A1 (Scripps Research, published 2019).

One assay deals with T1, relaxin receptor (LGR7).
T1 sequence (Q9HBX9 whole entry, species assumed, looked up): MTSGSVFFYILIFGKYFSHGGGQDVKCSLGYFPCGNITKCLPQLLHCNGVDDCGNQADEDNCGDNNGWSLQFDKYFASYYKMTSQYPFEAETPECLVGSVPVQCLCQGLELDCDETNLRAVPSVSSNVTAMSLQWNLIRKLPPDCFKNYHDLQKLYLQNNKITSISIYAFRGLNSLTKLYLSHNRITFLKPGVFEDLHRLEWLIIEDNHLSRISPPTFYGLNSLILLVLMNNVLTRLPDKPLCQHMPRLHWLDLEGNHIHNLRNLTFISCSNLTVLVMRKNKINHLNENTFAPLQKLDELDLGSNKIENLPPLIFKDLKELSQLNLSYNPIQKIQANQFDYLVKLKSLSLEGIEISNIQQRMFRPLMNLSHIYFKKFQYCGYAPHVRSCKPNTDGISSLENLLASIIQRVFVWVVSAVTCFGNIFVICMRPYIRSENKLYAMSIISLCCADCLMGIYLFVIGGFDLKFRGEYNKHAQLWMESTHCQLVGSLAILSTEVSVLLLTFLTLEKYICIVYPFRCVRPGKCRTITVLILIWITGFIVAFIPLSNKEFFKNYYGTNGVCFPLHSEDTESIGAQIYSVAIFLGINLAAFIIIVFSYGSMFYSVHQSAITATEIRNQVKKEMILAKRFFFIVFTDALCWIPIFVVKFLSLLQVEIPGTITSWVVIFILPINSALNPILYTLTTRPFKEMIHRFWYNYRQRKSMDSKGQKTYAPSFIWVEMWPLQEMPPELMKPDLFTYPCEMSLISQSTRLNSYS
Put plainly: cell-based or functional assay.

In assay [1] the target is T2, RSV F protein (UniProt P03420 26-524). Put plainly: ELISA, 100 ng/well RSV F protein coated, HRP anti-human IgG (Fc specific), QuantaBlu fluorescence (10 min).
Procedure: Optimized palivizumab-relaxin fusion protein antibodies were tested for binding to RSV by ELISA assay. 100 ng/well RSV F protein was coated on 96-well plate in PBS 4° C. overnight. The plate was blocked with 2% BSA/PBS at room temperature for 1 hr, then washed twice with 200 μL PBS. The fusion antibodies were incubated at various concentrations (as indicated in FIG. 4) in 2% BSA/PBS at room temperature for 1 hr. Plates were washed with PBS (0.025% Tween-20 in PBS) four times and washed with PBS one time. […] Binding was quantified using Spectramax fluorescence plate reader with excitation at 325 nm and emission at 420 nm. Binding Kd values were determined (Table 14).
Assay [2] addresses T2, RSV F protein. The assay is described as follows: plate binding assay, RSV F protein coated, anti-human IgG (Fc specific) detection, fluorescence read at 25 min.
For assay [3], the target named is T2, RSV F protein. The assay is described as follows: plate binding assay, RSV F protein coated, anti-human IgG (Fc specific) detection, fluorescence read at 50 min.

T2 sequence (P03420 26-524): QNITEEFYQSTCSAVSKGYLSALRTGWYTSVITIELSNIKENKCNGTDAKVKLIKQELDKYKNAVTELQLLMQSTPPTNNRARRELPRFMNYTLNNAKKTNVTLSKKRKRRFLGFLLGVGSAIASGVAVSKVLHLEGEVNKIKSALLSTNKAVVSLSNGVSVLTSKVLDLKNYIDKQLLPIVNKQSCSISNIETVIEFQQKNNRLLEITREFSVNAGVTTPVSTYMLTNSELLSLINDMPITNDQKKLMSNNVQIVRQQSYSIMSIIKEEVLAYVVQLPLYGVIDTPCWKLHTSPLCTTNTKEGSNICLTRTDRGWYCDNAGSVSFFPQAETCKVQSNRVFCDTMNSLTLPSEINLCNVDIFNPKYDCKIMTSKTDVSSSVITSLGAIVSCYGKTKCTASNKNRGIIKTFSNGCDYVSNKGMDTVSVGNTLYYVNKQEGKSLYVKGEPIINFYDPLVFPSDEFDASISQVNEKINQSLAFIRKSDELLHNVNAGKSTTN

B1: RLX304 (antibody, human IgG1, kappa)
heavy: DSWMEEVIKLCGRELVRAQIAICGMSTWSGGGGSGGGGQLYSALANKCCHVGCTKRSLARFCGGGGSGGGGSGGGGSGQVTLRESGPALVKPTQTLTLTCTFSGFSLSTSGMSVGWIRQPPGKALEWLADIWWDDKKDYNPSLKSRLTISKDTSKNQVVLKVTNMDPADTATYYCARSMITNAYFDVWGAGTTVTVSSASTKGPSVFPLAPSSKSTSGGTAALGCLVKDYFPEPVTVSWNSGALTSGVHTFPAVLQSSGLYSLSSVVTVPSSSLGTQTYICNVNHKPSNTKVDKKVEPKSCDKTHTCPPCPAPPVAGPSVFLFPPKPKDTLMISRTPEVTCVVVDVSHEDPEVKFNWYVDGVEVHNAKTKPREEQYNSTYRVVSVLTVLHQDWLNGKEYKCKVSNKGLPSSIEKTISKAKGQPREPQVYTLPPSRDELTKNQVSLTCLVKGFYPSDIAVEWESNGQPENNYKTTPPVLDSDGSFFLYSKLTVDKSRWQQGNVFSCSVMHEALHNHYTQKSLSLSPGK
light: DIQMTQSPSTLSASVGDRVTITCKCQLSVGYMHWYQQKPGKAPKLLIYDTSKLASGVPSRFSGSGSGTAFTLTISSLQPDDFATYYCFQGSGYPFTFGGGTKLEIKRTVAAPSVFIFPPSDEQLKSGTASVVCLLNNFYPREAKVQWKVDNALQSGNSQESVTEQDSKDSTYSLSSTLTLSKADYEKHKVYACEVTHQGLSSPVTKSFNRGEC
Take B1: the “EC50, CRE-luciferase reporter assay” value with relaxin receptor (LGR7) was 0.078 nM. In the assay with RSV F protein [1], this molecule displayed a Kd of 38.2 nM.

B2: Palivizumab null (antibody, human IgG1, kappa)
heavy: QVTLRESGPALVKPTQTLTLTCTFSGFSLSTSGMSVGWIRQPPGKALEWLADIWWDDKKDYNPSLKSRLTISKDTSKNQVVLKVTNMDPADTATYYCARSMITNWYFDVWGAGTTVTVSSASTKGPSVFPLAPSSKSTSGGTAALGCLVKDYFPEPVTVSWNSGALTSGVHTFPAVLQSSGLYSLSSVVTVPSSSLGTQTYICNVNHKPSNTKVDKKVEPKSCDKTHTCPPCPAPPVAGPSVFLFPPKPKDTLMISRTPEVTCVVVDVSHEDPEVKFNWYVDGVEVHNAKTKPREEQYNSTYRVVSVLTVLHQDWLNGKEYKCKVSNKGLPSSIEKTISKAKGQPREPQVYTLPPSRDELTKNQVSLTCLVKGFYPSDIAVEWESNGQPENNYKTTPPVLDSDGSFFLYSKLTVDKSRWQQGNVFSCSVMHEALHNHYTQKSLSLSPGK
light: DIQMTQSPSTLSASVGDRVTITCKCQLSVGYMHWYQQKPGKAPKLLIYDTSKLASGVPSRFSGSGSGTEFTLTISSLQPDDFATYYCFQGSGYPFTFGGGTKLEIKRTVAAPSVFIFPPSDEQLKSGTASVVCLLNNFYPREAKVQWKVDNALQSGNSQESVTEQDSKDSTYSLSSTLTLSKADYEKHKVYACEVTHQGLSSPVTKSFNRGEC
notes: also called null palivizumab antibody
On to B2, for which the Kd with RSV F protein [2] turned out to be 0.8 nM; with RSV F protein [3], 0.49 nM.

B3: RLX301 (antibody, human IgG1, kappa)
heavy: DSWMEEVIKLCGRELVRAQIAICGMSTWSGGGGSGGGGQLYSALANKCCHVGCTKRSLARFCGGGGSGGGGSGGGGSGQVTLRESGPALVKPTQTLTLTCTFSGFSLSTSGMSVGWIRQPPGKALEWLADIWWDDKKDYNPSLKSRLTISKDTSKNQVVLKVTNMDPADTATYYCARSMITFGGFDVWGAGTTVTVSSASTKGPSVFPLAPSSKSTSGGTAALGCLVKDYFPEPVTVSWNSGALTSGVHTFPAVLQSSGLYSLSSVVTVPSSSLGTQTYICNVNHKPSNTKVDKKVEPKSCDKTHTCPPCPAPPVAGPSVFLFPPKPKDTLMISRTPEVTCVVVDVSHEDPEVKFNWYVDGVEVHNAKTKPREEQYNSTYRVVSVLTVLHQDWLNGKEYKCKVSNKGLPSSIEKTISKAKGQPREPQVYTLPPSRDELTKNQVSLTCLVKGFYPSDIAVEWESNGQPENNYKTTPPVLDSDGSFFLYSKLTVDKSRWQQGNVFSCSVMHEALHNHYTQKSLSLSPGK
light: DIQMTQSPSTLSASVGDRVTITCKCQLSVGYMHWYQQKPGKAPKLLIYDTSKLASGVPSRFSGSGSGTAFTLTISSLQPDDFATYYCFQGSGYPFTFGGGTKLEIKRTVAAPSVFIFPPSDEQLKSGTASVVCLLNNFYPREAKVQWKVDNALQSGNSQESVTEQDSKDSTYSLSSTLTLSKADYEKHKVYACEVTHQGLSSPVTKSFNRGEC
In the case of B3, the “EC50, CRE-luciferase reporter assay” value in the assay with relaxin receptor (LGR7) was determined as 0.072 nM. Further, the Kd with RSV F protein [1] is 79.3 nM.

B4: RLX300 (no mutations) (antibody, human IgG1, kappa)
heavy: DSWMEEVIKLCGRELVRAQIAICGMSTWSGGGGSGGGGQLYSALANKCCHVGCTKRSLARFCGGGGSGGGGSGGGGSGQVTLRESGPALVKPTQTLTLTCTFSGFSLSTSGMSVGWIRQPPGKALEWLADIWWDDKKDYNPSLKSRLTISKDTSKNQVVLKVTNMDPADTATYYCARSMITNWYFDVWGAGTTVTVSSASTKGPSVFPLAPSSKSTSGGTAALGCLVKDYFPEPVTVSWNSGALTSGVHTFPAVLQSSGLYSLSSVVTVPSSSLGTQTYICNVNHKPSNTKVDKKVEPKSCDKTHTCPPCPAPPVAGPSVFLFPPKPKDTLMISRTPEVTCVVVDVSHEDPEVKFNWYVDGVEVHNAKTKPREEQYNSTYRVVSVLTVLHQDWLNGKEYKCKVSNKGLPSSIEKTISKAKGQPREPQVYTLPPSRDELTKNQVSLTCLVKGFYPSDIAVEWESNGQPENNYKTTPPVLDSDGSFFLYSKLTVDKSRWQQGNVFSCSVMHEALHNHYTQKSLSLSPGK
light: DIQMTQSPSTLSASVGDRVTITCKCQLSVGYMHWYQQKPGKAPKLLIYDTSKLASGVPSRFSGSGSGTAFTLTISSLQPDDFATYYCFQGSGYPFTFGGGTKLEIKRTVAAPSVFIFPPSDEQLKSGTASVVCLLNNFYPREAKVQWKVDNALQSGNSQESVTEQDSKDSTYSLSSTLTLSKADYEKHKVYACEVTHQGLSSPVTKSFNRGEC
notes: also called SC3.s
Molecule B4 had a Kd with RSV F protein [1] of 0.301 nM.

B5: RLX305 (antibody)
heavy: DSWMEEVIKLCGRELVRAQIAICGMSTWSGGGGSGGGGQLYSALANKCCHVGCTKRSLARFCGGGGSGGGGSGGGGSGQVTLRESGPALVKPTQTLTLTCTFSGFSLSTSGMSVGWIRQPPGKALEWLADIWWDDKKDYNPSLKSRLTISKDTSKNQVVLKVTNMDPADTATYYCARSMITNAYFDVWGAGTTVTVSSASTKGPSVFPLAPSSKSTSGGTAALGCLVKDYFPEPVTVSWNSGALTSGVHTFPAVLQSSGLYSLSSVVTVPSSSLGTQTYICNVNHKPSNTKVDKKVEPKSCDKTHTCPPCPAPPVAGPSVFLFPPKPKDTLMISRTPEVTCVVVDVSHEDPEVKFNWYVDGVEVHNAKTKPREEQYNSTYRVVSVLTVLHQDWLNGKEYKCKVSNKGLPSSIEKTISKAKGQPREPQVYTLPPSRDELTKNQVSLTCLVKGFYPSDIAVEWESNGQPENNYKTTPPVLDSDGSFFLYSKLTVDKSRWQQGNVFSCSVMHEALHNHYTQKSLSLSPGK
light: DIQMTQSPSTLSASVGDRVTITCKCQLSVGYMHWYQQKPGKAPKLLIYDTSKLASGVPSRFSGSGSGTAFTLTISSLQPDDFATYYCFQYSGYPFTFGGGTKLEIKRTVAAPSVFIFPPSDEQLKSGTASVVCLLNNFYPREAKVQWKVDNALQSGNSQESVTEQDSKDSTYSLSSTLTLSKADYEKHKVYACEVTHQGLSSPVTKSFNRGEC
In the assay with RSV F protein [1], B5 returned a Kd of 75.2 nM. Against the preceding molecule, the Kd is about 250-fold higher.

B6: RLX303 (antibody)
heavy: DSWMEEVIKLCGRELVRAQIAICGMSTWSGGGGSGGGGQLYSALANKCCHVGCTKRSLARFCGGGGSGGGGSGGGGSGQVTLRESGPALVKPTQTLTLTCTFSGFSLSTSGMSVGWIRQPPGKALEWLADIWWDDKKDYNPSLKSRLTISKDTSKNQVVLKVTNMDPADTATYYCARSMITFGGFDVWGAGTTVTVSSASTKGPSVFPLAPSSKSTSGGTAALGCLVKDYFPEPVTVSWNSGALTSGVHTFPAVLQSSGLYSLSSVVTVPSSSLGTQTYICNVNHKPSNTKVDKKVEPKSCDKTHTCPPCPAPPVAGPSVFLFPPKPKDTLMISRTPEVTCVVVDVSHEDPEVKFNWYVDGVEVHNAKTKPREEQYNSTYRVVSVLTVLHQDWLNGKEYKCKVSNKGLPSSIEKTISKAKGQPREPQVYTLPPSRDELTKNQVSLTCLVKGFYPSDIAVEWESNGQPENNYKTTPPVLDSDGSFFLYSKLTVDKSRWQQGNVFSCSVMHEALHNHYTQKSLSLSPGK
light: DIQMTQSPSTLSASVGDRVTITCKCQLSVGYMHWYQQKPGKAPKLLIYDTSKLASGVPSRFSGSGSGTAFTLTISSLQPDDFATYYCFQGNGYPFTFGGGTKLEIKRTVAAPSVFIFPPSDEQLKSGTASVVCLLNNFYPREAKVQWKVDNALQSGNSQESVTEQDSKDSTYSLSSTLTLSKADYEKHKVYACEVTHQGLSSPVTKSFNRGEC
Molecule B6 yielded a dissociation constant (Kd) with RSV F protein [1] of 52.1 nM.

B7: RLX306 (antibody)
heavy: DSWMEEVIKLCGRELVRAQIAICGMSTWSGGGGSGGGGQLYSALANKCCHVGCTKRSLARFCGGGGSGGGGSGGGGSGQVTLRESGPALVKPTQTLTLTCTFSGFSLSTSGMSVGWIRQPPGKALEWLADIWWDDKKDYNPSLKSRLTISKDTSKNQVVLKVTNMDPADTATYYCARSMITNAYFDVWGAGTTVTVSSASTKGPSVFPLAPSSKSTSGGTAALGCLVKDYFPEPVTVSWNSGALTSGVHTFPAVLQSSGLYSLSSVVTVPSSSLGTQTYICNVNHKPSNTKVDKKVEPKSCDKTHTCPPCPAPPVAGPSVFLFPPKPKDTLMISRTPEVTCVVVDVSHEDPEVKFNWYVDGVEVHNAKTKPREEQYNSTYRVVSVLTVLHQDWLNGKEYKCKVSNKGLPSSIEKTISKAKGQPREPQVYTLPPSRDELTKNQVSLTCLVKGFYPSDIAVEWESNGQPENNYKTTPPVLDSDGSFFLYSKLTVDKSRWQQGNVFSCSVMHEALHNHYTQKSLSLSPGK
light: DIQMTQSPSTLSASVGDRVTITCKCQLSVGYMHWYQQKPGKAPKLLIYDTSKLASGVPSRFSGSGSGTAFTLTISSLQPDDFATYYCFQGNGYPFTFGGGTKLEIKRTVAAPSVFIFPPSDEQLKSGTASVVCLLNNFYPREAKVQWKVDNALQSGNSQESVTEQDSKDSTYSLSSTLTLSKADYEKHKVYACEVTHQGLSSPVTKSFNRGEC
In the assay with RSV F protein [1], B7 showed a Kd of 82.7 nM. Against the preceding molecule, the Kd is about 1.6-fold higher.
